Earlier results on one substance are cited in PMC12188480.

The target of the series is c-MET (Homo sapiens) (UniProt P08581).
Chain of c-MET (Homo sapiens) (P08581 25-932): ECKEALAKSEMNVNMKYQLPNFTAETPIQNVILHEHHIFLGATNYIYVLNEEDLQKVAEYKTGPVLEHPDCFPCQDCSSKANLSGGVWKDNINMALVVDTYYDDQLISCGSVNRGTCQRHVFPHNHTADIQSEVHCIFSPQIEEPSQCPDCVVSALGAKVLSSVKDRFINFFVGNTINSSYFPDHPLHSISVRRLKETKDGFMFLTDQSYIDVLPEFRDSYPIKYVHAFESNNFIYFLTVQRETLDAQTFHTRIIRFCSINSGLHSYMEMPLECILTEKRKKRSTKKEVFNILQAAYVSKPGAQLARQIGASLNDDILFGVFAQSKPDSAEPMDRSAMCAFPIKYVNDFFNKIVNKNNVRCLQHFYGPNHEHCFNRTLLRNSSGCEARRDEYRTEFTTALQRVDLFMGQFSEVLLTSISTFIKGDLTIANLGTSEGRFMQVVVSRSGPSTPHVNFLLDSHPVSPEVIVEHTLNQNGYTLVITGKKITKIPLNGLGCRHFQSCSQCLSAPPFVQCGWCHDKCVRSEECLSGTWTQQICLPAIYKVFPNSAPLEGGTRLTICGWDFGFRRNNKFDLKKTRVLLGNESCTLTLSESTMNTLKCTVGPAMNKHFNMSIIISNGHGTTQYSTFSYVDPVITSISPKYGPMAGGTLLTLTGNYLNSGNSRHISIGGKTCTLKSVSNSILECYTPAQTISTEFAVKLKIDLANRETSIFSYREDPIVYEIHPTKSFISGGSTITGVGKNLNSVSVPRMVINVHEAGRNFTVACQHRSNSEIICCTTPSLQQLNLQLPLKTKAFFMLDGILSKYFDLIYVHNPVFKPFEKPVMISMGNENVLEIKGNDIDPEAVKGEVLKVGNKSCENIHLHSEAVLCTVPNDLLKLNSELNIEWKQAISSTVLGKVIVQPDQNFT

One may read the Kd as a measure of binding affinity in units of concentration. Regarding onartuzumab, the Kd was 1.2 nM.
